# Results reported in the supplement of paper PMC7125110.
# ± gives the standard error. This sample holds only a part of the variants without activity.
# B1: glmS ribozyme (parent)
# chain: AUAAAAGCGCCAGAACUACAGAAAUGUAGUUGACGAGGAGGAGGUUUAUCGAAUUUUCGGCGGAUGCCUCCAAA
# Experiments:
# Settings in all cases: with glucosamine-6-phosphate
# [1] = variants of: B1; test: self-cleavage kobs at 40 uM GlcN6P; higher = faster cleavage; RNA array
# Procedure, shortened: (§1)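 A hybridised Cy3 probe tracked barcoded ribozyme variants, transcribed in situ by E. coli RNA polymerase on sequenced MiSeq chips, at 37 °C. The variants received 40 μM to 10 mM glucosamine-6-phosphate in HEPES/KCl/Mg(OAc)2 buffer. kobs came from decay fits and kcat and KM from weighted Michaelis–Menten fits.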
# [2] = variants of: B1; test: self-cleavage kobs at 10000 uM GlcN6P; higher = faster cleavage; RNA array
# Procedure, shortened: as §1
# [3] = variants of: B1; test: self-cleavage kobs at 640 uM GlcN6P; higher = faster cleavage; RNA array
# Procedure, shortened: as §1
# [4] = variants of: B1; test: self-cleavage kobs at 2500 uM GlcN6P; higher = faster cleavage; RNA array
# Procedure, shortened: as §1
# [5] = variants of: B1; test: self-cleavage kobs at 160 uM GlcN6P; higher = faster cleavage; RNA array
# Procedure, shortened: as §1
Variant,self-cleavage kobs at 40 uM GlcN6P [1],self-cleavage kobs at 10000 uM GlcN6P [2],self-cleavage kobs at 640 uM GlcN6P [3],self-cleavage kobs at 2500 uM GlcN6P [4],self-cleavage kobs at 160 uM GlcN6P [5]
G7A C50G C68A,9.01e-05 ± 1.9e-05 s⁻¹,0.000134 ± 2.4e-05 s⁻¹,–,–,–
A6U A48C C50U A52U C61U C67G C68G,< 1e-05 s⁻¹,–,–,–,–
A6G G29U G35A C50G G51U G66U C71U,< 1e-05 s⁻¹,–,–,–,–
A6G G29A C34G,< 1e-05 s⁻¹,< 1e-05 s⁻¹,< 1e-05 s⁻¹,< 1e-05 s⁻¹,–
A6G G43U C67U,< 1e-05 s⁻¹,< 1e-05 s⁻¹,< 1e-05 s⁻¹,–,< 1e-05 s⁻¹
G7C A15C,< 1e-05 s⁻¹,< 1e-05 s⁻¹,< 1e-05 s⁻¹,< 1e-05 s⁻¹,< 1e-05 s⁻¹
A6U A36C C50U A64G,< 1e-05 s⁻¹,–,–,–,–
G7A G41C,< 1e-05 s⁻¹,–,< 1e-05 s⁻¹,< 1e-05 s⁻¹,< 1e-05 s⁻¹
G7C C11U,< 1e-05 s⁻¹,< 1e-05 s⁻¹,< 1e-05 s⁻¹,< 1e-05 s⁻¹,< 1e-05 s⁻¹
G7C C11A,< 1e-05 s⁻¹,< 1e-05 s⁻¹,< 1e-05 s⁻¹,–,< 1e-05 s⁻¹
G7A C8G A12C,< 1e-05 s⁻¹,–,–,–,–
A6G A48U,< 1e-05 s⁻¹,< 1e-05 s⁻¹,< 1e-05 s⁻¹,< 1e-05 s⁻¹,< 1e-05 s⁻¹
G7A G40C,< 1e-05 s⁻¹,–,< 1e-05 s⁻¹,< 1e-05 s⁻¹,< 1e-05 s⁻¹
G7C C68A,< 1e-05 s⁻¹,< 1e-05 s⁻¹,–,< 1e-05 s⁻¹,< 1e-05 s⁻¹
A6G A36C G63A,< 1e-05 s⁻¹,< 1e-05 s⁻¹,–,–,–
G7A G40A A52C,< 1e-05 s⁻¹,< 1e-05 s⁻¹,< 1e-05 s⁻¹,–,–
A6G G9C G59U,< 1e-05 s⁻¹,–,–,< 1e-05 s⁻¹,–
G7A U56G,< 1e-05 s⁻¹,–,< 1e-05 s⁻¹,–,–
G7A A33C,< 1e-05 s⁻¹,< 1e-05 s⁻¹,< 1e-05 s⁻¹,–,< 1e-05 s⁻¹
A6C U49G,< 1e-05 s⁻¹,–,< 1e-05 s⁻¹,–,–
A6G G44A,< 1e-05 s⁻¹,< 1e-05 s⁻¹,< 1e-05 s⁻¹,< 1e-05 s⁻¹,< 1e-05 s⁻¹
A6G G44C,< 1e-05 s⁻¹,< 1e-05 s⁻¹,< 1e-05 s⁻¹,< 1e-05 s⁻¹,< 1e-05 s⁻¹

Variant,self-cleavage kobs at 40 uM GlcN6P [1],self-cleavage kobs at 10000 uM GlcN6P [2],self-cleavage kobs at 640 uM GlcN6P [3],self-cleavage kobs at 2500 uM GlcN6P [4],self-cleavage kobs at 160 uM GlcN6P [5]
A6C G13U C34G G60C,< 1e-05 s⁻¹,–,–,–,–
A6U U31C G41A,< 1e-05 s⁻¹,< 1e-05 s⁻¹,–,–,–
A6U G9A U65G C70A,< 1e-05 s⁻¹,–,–,–,–
A6G G41U U57G G59C C71U,< 1e-05 s⁻¹,< 1e-05 s⁻¹,< 1e-05 s⁻¹,< 1e-05 s⁻¹,< 1e-05 s⁻¹
A6C G32C C58G,< 1e-05 s⁻¹,–,< 1e-05 s⁻¹,< 1e-05 s⁻¹,–
A6G A33U A53U,< 1e-05 s⁻¹,< 1e-05 s⁻¹,–,–,–
G7A U31C A48U,< 1e-05 s⁻¹,–,–,–,–
A6U C11U G26U U56C,< 1e-05 s⁻¹,–,–,–,–
A6U A12G A42C A52U A64G C68G,< 1e-05 s⁻¹,< 1e-05 s⁻¹,–,< 1e-05 s⁻¹,–
A6G C61G,< 1e-05 s⁻¹,< 1e-05 s⁻¹,< 1e-05 s⁻¹,< 1e-05 s⁻¹,< 1e-05 s⁻¹
A6U G29U C50U G66C,< 1e-05 s⁻¹,< 1e-05 s⁻¹,–,–,–
A6G U30C G35A A39G G40A G66A,< 1e-05 s⁻¹,< 1e-05 s⁻¹,–,–,–
G7A A14G U49C,< 1e-05 s⁻¹,< 1e-05 s⁻¹,–,–,–
G7A G21U A33G C67U U69G,8.76e-05 ± 2.2e-05 s⁻¹,0.000115 ± 1.8e-05 s⁻¹,–,–,–
A6G G38C,< 1e-05 s⁻¹,< 1e-05 s⁻¹,< 1e-05 s⁻¹,< 1e-05 s⁻¹,< 1e-05 s⁻¹
G7A G32U A39G C58A,< 1e-05 s⁻¹,< 1e-05 s⁻¹,–,–,–
G7C C34U G35A G37U A42U G43U C71A,< 1e-05 s⁻¹,–,< 1e-05 s⁻¹,–,–
G7A G35A A53C,< 1e-05 s⁻¹,–,< 1e-05 s⁻¹,< 1e-05 s⁻¹,< 1e-05 s⁻¹
A6G C8U,< 1e-05 s⁻¹,< 1e-05 s⁻¹,–,< 1e-05 s⁻¹,–
A6G U49C,< 1e-05 s⁻¹,–,< 1e-05 s⁻¹,< 1e-05 s⁻¹,< 1e-05 s⁻¹
G7C G9C A15U,< 1e-05 s⁻¹,< 1e-05 s⁻¹,–,–,–
